Reference: publication PMC7714071, “Interaction of amyloid beta with humanin and acetylcholinesterase is modulated by ATP” (FEBS Open Bio, 2020)

What was measured:
Aβ cytotoxicity = conditions: versus Aβ aggregates alone; cited from earlier work
From the text: Almost all types of cells produce amyloid beta (Aβ), a peptide well recognized for its role in the development and progression of different stages of Alzheimer's disease (AD). The Aβ peptide is ~ 4 kDa and derived from the sequential processing of the higher molecular weight amyloid precursor protein by two membrane‐bound endoproteases, β‐ and γ‐secretase. Different C‐terminal Aβ heterogeneity results from processing by γ‐secretase, where Aβ40 represents the most abundant isoform (~ 90%) as compared to Aβ42 (~ 10%). Self‐assembled Aβ40/42 peptides into amyloid fib ... || Soluble oligomers of proteins implicated in different diseases are primarily thought to be the main toxic form as opposed to the larger fibrillar assemblies. Aβ regions containing Tyr and Ser (H6DSGY10 and G25SNKG29) (Fig. 1) along with post‐translational modifications of these regions, have been implicated in misfolding, oligomerization, or fibril formation of Aβ [5, 10, 11, 16, 41]. […] Aβ proteins a ... || Acetylcholinesterase (AChE) is an enzyme known for its role in terminating acetylcholine‐mediated neurotransmission at the synaptic cleft. The majority of the cortical AChE in the Alzheimer's brain is mainly associated with the amyloid core of senile plaques. […]

Aβ42 = conditions: cited from earlier work
From the text: Almost all types of cells produce amyloid beta (Aβ), a peptide well recognized for its role in the development and progression of different stages of Alzheimer's disease (AD). The Aβ peptide is ~ 4 kDa and derived from the sequential processing of the higher molecular weight amyloid precursor protein by two membrane‐bound endoproteases, β‐ and γ‐secretase. Different C‐terminal Aβ heterogeneity results from processing by γ‐secretase, where Aβ40 represents the most abundant isoform (~ 90%) as compared to Aβ42 (~ 10%). Self‐assembled Aβ40/42 peptides into amyloid fib ... || Amino acid residues involved in direct interactions between HN and Aβ40 were identified previously by molecular modeling. The specific epitopes at the binding interface between HN and Aβ40 were identified, by proteolytic epitope excision and extraction in addition to affinity–mass spectrometric data analysis, to be HN (5–15) and Aβ (17–28). […] Inhibiting the 17–28 region of Aβ reduced aggregation of the neurotoxic amyloid fibrils and related cytotoxicity in SH‐SY5Y, a human neuroblastoma cell ... || Acetylcholinesterase (AChE) is an enzyme known for its role in terminating acetylcholine‐mediated neurotransmission at the synaptic cleft. The majority of the cortical AChE in the Alzheimer's brain is mainly associated with the amyloid core of senile plaques. […]

A549 cells = test: MTT cell viability, A549; type: cell-based, human; conditions: AChE-ID media, 48 h, A549; Fig. 7A
Method: Human NSCLC cell lines, A549 (ATCC CCL‐185) and H1299 (ATCC CRL‐5803), were purchased from the American Type Culture Collection (ATCC, Manassas, VA, USA). Cells were seeded as we reported earlier in 5 mL HyClone Dulbecco's modified Eagle's medium/nutrient mixture F‐12 (DMEM/F12) (GE Healthcare Life Sciences, Pittsburgh, PA, USA), supplemented with 10% Fetalgro bovine growth serum (FBS; RMBIO, Missoula, MT, USA), 50 U·mL^−1 penicillin, and […] streptomycin (Invitrogen, Life Technologies, Carlsbad, CA, USA) in 25‐cm^2 tissue culture flasks, and allowed to grow overnight in an incubator at 37 °C, 95% humidity, and 5% CO2. The cells were counted after trypan blue staining, with a hemocytometer.
The 3‐(4,5‐dimethylthiazol‐2‐yl)‐2,5‐diphenyl‐tetrazolium bromide (MTT) reduction assay (Sigma‐Aldrich), used to measure cell viability, was carried out as we reported earlier. […] The absorbance was measured at 570 nm in a plate reader. […]
Conditioned media were immunodepleted (ID) according to the methods previously described and our recently published report. […] The ID media were then carefully removed and analyzed for the presence of the target protein or peptide by ELISA. The same amount of protein (3 µL of 600 µg·mL^−1 total protein) of each sample was analyzed in the experiments. […]

B1: acetylcholinesterase (protein)
chain: EGREDAELLVTVRGGRLRGIRLKTPGGPVSAFLGIPFAEPPMGPRRFLPPEPKQPWSGVVDATTFQSVCYQYVDTLYPGFEGTEMWNPNRELSEDCLYLNVWTPYPRPTSPTPVLVWIYGGGFYSGASSLDVYDGRFLVQAERTVLVSMNYRVGAFGFLALPGSREAPGNVGLLDQRLALQWVQENVAAFGGDPTSVTLFGESAGAASVGMHLLSPPSRGLFHRAVLQSGAPNGPWATVGMGEARRRATQLAHLVGCPPGGTGGNDTELVACLRTRPAQVLVNHEWHVLPQESVFRFSFVPVVDGDFLSDTPEALINAGDFHGLQVLVGVVKDEGSYFLVYGAPGFSKDNESLISRAEFLAGVRVGVPQVSDLAAEAVVLHYTDWLHPEDPARLREALSDVVGDHNVVCPVAQLAGRLAAQGARVYAYVFEHRASTLSWPLWMGVPHGYEIEFIFGIPLDPSRNYTAEEKIFAQRLMRYWANFARTGDPNEPRDPKAPQWPPYTAGAQQYVSLDLRPLEVRRGLRAQACAFWNRFLPKLLSATDTLDEAERQWKAEFHRWSSYMVHWKNQFDHYSKQDRCSDL
- toxicity of AChE-amyloid complexes (Aβ cytotoxicity): Higher toxicity
- effect on Aβ42 oligomeric formation (Aβ42): increases Aβ42 oligomeric formation
- increase in cell viability upon AChE immunodepletion (A549 cells): ~ 1.45 fold
